Among the data in patent US20250114450A1 (AKESO BIOPHARMA, published 2025) are Kd values, retold here.

In general, Kd refers to a measure of binding affinity in units of concentration. A higher Kd goes with weaker binding.

For the assay, the target named is T1, FcγRI (UniProt P12314 16-288, limits assumed).
T1 construct: construct not described; also called CD64; FcγRIa
Put plainly: BLI (Fortebio Octet), FcγRI immobilized on HIS1K sensor, antibody 3.12-50 nM, 1:1 fit. The protocol: 1 μg/mL FcγRIa was immobilized on the HIS1K sensor for 50 s. The sensor was equilibrated in a buffer for 60 s, and the binding of the immobilized CD64 on the sensor to the antibodies at concentrations of 3.12-50 nM (two-fold dilution) was determined for 120 s. The antibody was dissociated in the buffer for 120 s. The sensor was refreshed 4 times in 10 mM glycine pH 1.5, each for 5 s. The detection temperature was 30° C. and the frequency was 0.3 Hz. The data were analyzed by 1:1 model fitting to obtain affinity constants.

T1 sequence (P12314 16-288 limits assumed): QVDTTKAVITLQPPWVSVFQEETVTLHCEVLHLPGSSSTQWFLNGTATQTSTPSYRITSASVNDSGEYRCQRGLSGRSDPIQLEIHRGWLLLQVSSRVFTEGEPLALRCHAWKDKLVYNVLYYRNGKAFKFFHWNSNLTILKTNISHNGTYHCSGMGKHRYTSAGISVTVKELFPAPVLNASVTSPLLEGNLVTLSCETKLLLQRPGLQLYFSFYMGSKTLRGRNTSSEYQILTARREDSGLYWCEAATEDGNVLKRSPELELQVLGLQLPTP

B1: Bevacizumab (antibody, human IgG1, kappa)
heavy: not shown
light: not shown
notes: also called Avastin; anti-VEGFA monoclonal antibody
For the molecule B1, binding was characterised by a dissociation constant (Kd) of 3.68 nM.
